The source of these data is PMC3310279 (Bioconjugate Chemistry, 2012).

The test system of the data set is MDA-MB-435 human breast tumor xenografts. Nature of the data set: Biodistribution in mice bearing MDA-MB-435 xenografts. The format is in vivo. As to conditions: MDA-MB-435 tumor-bearing athymic nude mice, 60 min p.i., mean ± SD n = 4.

Take “[^99mTc(HYNIC-K(NIC)-3G-RGD2)(tricine)] [Complex 2]”: the Tumor/Liver ratio is given as 4.1 ± 0.97.
